Test results reported in patent publication US5508261, “Analogs of glycoprotein hormones having altered receptor binding specificity and activity and methods for preparing and using same” (University of Medicine & Dentistry of New Jersey, dated 1996).

Key:
[1] = molecular target: rat luteal ovarian LH receptors (rat, UniProt P16235); assay: inhibition of 125I-hCG binding to rat luteal ovarian LH receptors
Method: (§1) The concentrations of the analogs were determined by sandwich immunoassay using antibodies B105 and A113. The term "N.D." means not determined because concentrations of analog were not employed high enough to detect 50% inhibition.
An aliquot of the ligation mixture was taken and used to transform DH5-alpha strain E. coli. (obtained from Bethesda Research Laboratories, Gaithersburg, Md.). Plasmid DNAs from ampicillin-resistant DH5-alpha clones were screened by digestion with BglII (which is unique to vectors containing the cassette) and EcoRI (which cuts in the vector). Positive clones were identified by the presence of two fragments (approximately 0.8 Kbp and 2.9 Kbp). […] The remainder of the beta-subunit cDNA (encoding hCGβ amino acids 1–87) was restored by ligation of the 2.3 Kbp PvuI-PvuII fragment of this vector and the 2.9 Kbp PvuI-PvuII fragment from pSVL-hCG-beta'. […] After the DNA was subjected to a dideoxy sequencing procedure to confirm that it encoded "GT" (Table 1), the plasmid DNA was then cotransfected into COS-7 cells (obtained from the American Type Culture Collection) along with pSVL-hCG-alpha, a pSVL-based plasmid encoding the human glycoprotein hormone alpha-subunit (10, 21), using a DEAE-dextran procedure (10).

[2] = molecular target: T1, bovine testes FSH receptors (bovine, UniProt P35376); assay: inhibition of 125I-hFSH binding to bovine testes FSH receptors (N.D. in Table 3)
[3] = molecular target: T1, bovine testes FSH receptors; assay: inhibition of 125I-hFSH binding to bovine testes FSH receptors
Method: as §1

Row | activity relative to hCG (LH RECEPTORS; ratio of concentrations for 50% inhibition) [1] | binding result [2] | binding result [1] | binding result [3] | Binder
1 | 0.33 relative to recombinant hCG | no binding |  |  | Analog "GT" (ligand) chain 1: not shown chain 2: SKEPLRPRCRPINATLAVEKEGCPVCITVNITICAGYCPTMTRVLQGVLPALPQVVCNYRDVRFESIRLPGCPRGVNPVVSYAVALSCQCALCRRSTTDCIHEAIKTNYCTKPQKSY
2 |  |  | no binding |  | recombinant hFSH (ligand) chain 1: not shown chain 2: NSCELTNITIAIEKEECRFCISINITWCAGYCYTRDLVYKDPARPKIQKTCTFKELVYETVRVPGCAHHADSLYTYPVALQCHCGKCDSDSTDCTVRGLGPSYCSFGEMKE
3 | 0.15 relative to recombinant hCG |  |  | no binding | Analog "Q" (ligand) chain 1: not shown chain 2: SKEPLRPRCRPINATLAVEKEGCPVCITVNITICAGYCPTMTRVLQGVLPALPQVVCNYRDVRFESIRLPGCPRGVNPVVSYAVALSCQCALCDSDSTDCGGPKDHPSYCSFGE
4 |  |  |  | no binding | recombinant hCG (ligand) chain 1: not shown chain 2: SKEPLRPRCRPINATLAVEKEGCPVCITVNITICAGYCPTMTRVLQGVLPALPQVVCNYRDVRFESIRLPGCPRGVNPVVSYAVALSCQCALCRRSTTDCGGPKDHPLTCDDPRFQDSSSSKAPPPSLPSPSRLPGPSDTPILPQ
5 |  | no binding |  |  | Analog "D" (ligand) chain 1: not shown chain 2: SKEPLRPRCRPINATLAVEKEGCPVCITVNITICAGYCPTMTRVLQGVLPALPQVVCNYRDVRFESIRLPGCPRGVNPVVSYAVALSCQCALCDSDSTDCGGPKDHPLTCDDPRFQDSSSSKAPPPSLPSPSRLPGPSDTPILPQ
